Test results published in US20220185900A1.

B1: H4H8083P (antibody, human IgG4, V domains shown)
VH: QVQLVESGGGVVQPGRSLRLSCAASGFTFNNYVMHWVRQAPGKGLEWVALIWYDGSNKYYADSVKGRFTISRDNSKNALNLQMNSLRAEDTAVYFCARVSIAARNYYYGGLDVWGQGTTVTVSS
VL: EIVLTQSPGTLSLSPGERATLSCRASQSVSSTYLAWYQQKPGQAPRLLIYGASSRATGIPDRFSGSGSGTDFTLTISRLEPEDFAVYYCQHYGGSPLTFGGGTKVEIK
B2: H4H8084P (antibody, human IgG4, V domains shown)
VH: QVQLVESGGGVVQPGRSLRLSCEASGFTFRNYGMHWVRQAPGKGLDWVSTIYYDGSDEYYSDSVKGRFTISRDNSKNTLYLQMNSLRAEDTAVYYCARDPPSFRYFDYWGQGTLVTVSS
VL: DIQMTQSPSTLSASVGDRVTITCRASQSIRSWLTWYQQKPGKAPKVLIYKASTLERGVPSRFSGSGSGTEFTLTISSLQPEDFATYYCHQYSSYSYTFGQGTKLEIK
B3: H4H8085P (antibody, human IgG4, V domains shown)
VH: QVQLVESGGGVVQPGRSLRLSCTASGFTFDNYGMHWVRQAPGKGLEWVAVISYDGSNTFYADSVKGRFTISRDNSKNALYLQMNSLRAEDTAVYYCAKDLEFDILIGYPFDSWGRGTLVTVSS
VL: DIQLTQSPSFLSASVGDRVTITCWASQDISRYLAWYQQKPGKAPNLLIYAASTLQSGVPSRFSGSGSGTEFTLTINSLQPEDFATYYCQQLFSYPRTFGQGTKVEIK
B4: H4H8087P (antibody, human IgG4, V domains shown)
VH: QVQLVESGGGVVQPGRSLRLSCAASGFSFSSYGMHWVRQAPGKGLEWVAVMWYDGSNEYYADSVKGRFIISRDNSKSTLYLEMNSLRAEDTALYYCAREDWDEGYYYGMDVWGQGTTVTVSS
VL: DIQMTQSPSSLFASVGDRVTITCRASQDIRYDLGWYQQKPGKAPKRLIYASSILESGVPSRFSGSGSGTEYTLTISTLQSEDFAIYYCLQHNSFPWTFGQGTKVEIK
B5: H4H7086N (antibody, human IgG4, V domains shown)
VH: QVQLVESGGGVVQPGRSLRLSCVVSGFTFSNYGMHWVRQGPGRGLEWLALIWYDGSDKYYAESVRGRFTISRDNSKNTVYLQMNSLRAEDTAMYYCTRDRIFDYWGQGTLVTVSS
VL: AIQMTQSPSSLSASVGDRVTITCRASQDIRNDLGWYQHNPGKAPNLLIYAASTLQIGVPSRFRGSGSGTDFTLTISSLQPEDFATYYCLQDFDYPLSFGGGTKVEIR

The binders below were run against human RET on cells (MCF7/SRE-Luc; HEK293/hGFRα3/hRET/SRE-Luc; HEK293/hGFRα1/hRET/SRE-Luc) (human), P07949 (assay: cell-based or functional assay).
For B1, the 293/hGFRα3/hRET SRE-luc % Blocking was 81%, the 293/hGFRα3/hRET/SRE-Luc IC50 was 57 nM and the MCF7/SRE-Luc % Activation was 0%. For the same binder, the MCF7/SRE-Luc Avg % Blocking was 68% and the MCF7/SRE-luc Avg. IC50 was > 100 nM. For B2, the 293/hGFRα3/hRET SRE-luc % Blocking was 94%, the 293/hGFRα3/hRET/SRE-Luc IC50 was 2.1 nM and the MCF7/SRE-Luc % Activation was 0%. The MCF7/SRE-Luc Avg % Blocking was 100% and the MCF7/SRE-luc Avg. IC50 was 10.4 nM. B3 was tested, and the 293/hGFRα3/hRET SRE-luc % Blocking was 72%, the 293/hGFRα3/hRET/SRE-Luc IC50 was 127 nM and the MCF7/SRE-Luc % Activation was 47%. For the same binder, the MCF7/SRE-Luc Avg % Blocking was 0% and the luciferase activity in MCF7/SRE-Luc, % of the levels observed with GDNF was 50%. B4 was tested, and the 293/hGFRα3/hRET SRE-luc % Blocking was 100%, the 293/hGFRα3/hRET/SRE-Luc IC50 was 0.25 nM and the Internalization (% H4H8087P), HEK293/hGFRa1/hRET/SRE-Luc cells, 37 C was 100%. For the same binder, the MCF7/SRE-Luc % Activation was 0%, the MCF7/SRE-Luc Avg % Blocking was 100% and the MCF7/SRE-luc Avg. IC50 was 0.25 nM. With B5 the Internalization (% H4H8087P), HEK293/hGFRa1/hRET/SRE-Luc cells, 37 C was 59%.
